Results: the supplement of paper PMC9170038

Tested on: MS2 coat protein
Experiment: apparent KD of MS2 coat protein; designed switch direction (-1 OFF switch, 1 ON switch): 1; higher = weaker reporter binding
Summary of the method: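 The reported apparent KD is a per-design median over clusters, from curve fits of normalised cluster fluorescence. Protein titrations used SNAP-549-labelled MS2 coat protein, doubled from 0.7 or 1.5 nM to 3 µM, in Tris-HCl pH 7.5 buffer with KCl, MgCl2, BSA, DTT, tRNA and Tween-20, with no input, 200 uM small-molecule ligand, or an oligonucleotide input. The RNA switches were transcribed on Illumina chips by stalled E. coli RNA polymerase.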

[1] = Eterna round: R95, input ligand: FMN 200 uM
[2] = Eterna round: R95, input ligand: microRNA oligo, concentration not stated
[3] = Eterna round: R95, input ligand: none
[4] = input ligand: microRNA oligo, concentration not stated

Sequence | apparent KD of MS2 coat protein [1] [nM] | apparent KD of MS2 coat protein [2] [nM] | apparent KD of MS2 coat protein [3] [nM] | apparent KD of MS2 coat protein (input ligand: FMN 200 uM) [nM] | apparent KD of MS2 coat protein [4] [nM] | apparent KD of MS2 coat protein (input ligand: none) [nM]
GUAUAACAUGAGGAUCACCCAUGUCAUCUAAGUCGAGGAUAUGGGCAAAUAAUAUAAGAACCAGAAGGCGAAUAUG [Mat - Same State 1 - Mod of UCT - D35] (puzzle: Same State 1) | 61.8 | 122 | 359 | – | – | –
AUUGCUUACGCAGGAUAUGAUGCGAAAAUUGCGUCAGAAGGGUGAAAAGAAUCGUUGCAAGAAGACAUGAGGAUCACCCAUGUC [SameState NG1 #94] (Eterna round: R96, puzzle: Same State NG 1) | – | – | – | 29.9 | 28.2 | 59.8
UUAAUGAAGUAAGGAUAUACAUGAGGAUCACUCGUAGAAGGUACUAUACAUGAGGAUCACCCAUGUGCCGGUCCGUAGACUGGA [JL SSNG1 1.03] (Eterna round: R96, puzzle: Same State NG 1) | – | – | – | 554 | 184 | 1090
AGUCCAGCCUGAGCUGGACAAAAGCAUGUACAUGAGGAUCACCCAUGUCAUGUACAAGCUUUUAGCUCGUCUUAAAA [Mat - hsa-mir-208a - Mod of JL - D14] (puzzle: Sensor for hsa-mir-208a) | 455 | 14.6 | 501 | – | – | –
AAUUAUUAACAUGAGGAUCACCCAUGUAUCAUGAUUACUAUUAUUAGUAUCAUGAAUAGGGUUUUUGCUCGUCUUAU [ben_bell_2] (puzzle: Sensor for hsa-mir-208a version 2) | 85.9 | 26.2 | 53.5 | – | – | –
GGAGCCGGCACGGAGGAUAUUCAUAUUAAAACAUGAGGAUCACCCAUGUAGGCCAGAAGGCCUUGGGAGAAGGCCGAUCGGCUCG [Xeonanis - 15] (puzzle: Same State 2) | 21.9 | 306 | 409 | – | – | –
AAACGUCACAUGAGGAUCACCCAUGUAGCCAUAAGAAGCGGACAGGAUAUUGACCUGAACGGAGUCAAGAAGGGUCAGUAUCAG [Eternabot solution 1] (Eterna round: R96, puzzle: Same State NG 3) | – | – | – | 14.7 | 12.9 | 18.2
AUUUUUAAUGCAGGAUAUGAUCAACAUGAGGAUCACCCAUGUGGUGUUGUGAGUAAGGAGAGUGAUCAGAAGGGCAUCUUUUCA [SS-NG2-LRO03] (Eterna round: R96, puzzle: Same State NG 2) | – | – | – | 1310 | 372 | 758
AGGAAGGAGACUGAGGAUAUCGUUGAGAGGACAUGAGGAUCACCCAUGUGUAUAGGAUUGGAGAACGAGAAGGCAGAGGAGUGGA [JR_SS2_Sub046] (puzzle: Same State 2) | 50 | 48.5 | 72.4 | – | – | –
AUUUAACAAGCUUUUUGCUCGUCUUAUAAACAUGAGGAUCACCCAUGUAAUAGCGUGAGAGUAAAUAAUUAAAUAAU [JMF 89] (puzzle: Sensor for hsa-mir-208a) | 13.3 | 50.7 | 9.91 | – | – | –
UUUUUUUUACAUGAGGAUCACCCAUGUCGGGCUGUUUGCUUUCAUGUCUUAUUGCAUGCAUGUUUUUCAUGCAUGCU [jnicol vienna2 solution] (puzzle: Sensor for hsa-mir-208a version 2) | 97.7 | 129 | 145 | – | – | –
UGGCUCAGACGAGGAUAUAUGCGAUCACAUGAGGAUCACCCAUGUCUCGAGCUUCGGCUCGAGGCAUAGAAGGCGUCUGAGCCA [SSNG2/4-A2] (Eterna round: R96, puzzle: Same State NG 2) | – | – | – | 15.8 | 28 | 32.5
AGUCCAGCCUGAGCUGGACAAAAGCAUGUACAUGAGGAUCACCCAUGUCAUGUACAAGCUUUUUGCUCGUCUUAUUA [Mat - hsa-mir-208a - Mod of JL - D24] (puzzle: Sensor for hsa-mir-208a) | 694 | 16.3 | 722 | – | – | –
UGUUGUAUUACAGGAUAUCUAUUAGUUUAAUUUAGAGAAGGGUAUUCACAUGAGGAUCACCCAUGUAUAUACGAGGAAGUUGUG [JMF's solution 93] (Eterna round: R96, puzzle: Same State NG 1) | – | – | – | – | 39.5 | –
AGUCCUGAAAAGAAAAUACAGAGAUAUGUACAUGAGGAUCACCCAUGUCAUGUACAAGUUCUAUGCUCGUCAUAUAA [Sensorship 21 - Jieux - Sensor for hsa-mir-208a] (puzzle: Sensor for hsa-mir-208a) | 202 | 63.6 | 262 | – | – | –
CAGCACUGUCGAGAGGAUAUGCGGUGAUGGACAUGAGGAUCACCCAUGUUAGCGACAGCAUCACGGCAGAAGGCUCUACUGUUGC [Soteed Omei mod 34] (puzzle: Same State 2) | 12.6 | 12.2 | 14.3 | – | – | –
AGGGAGGAAGCUGAGGAUAUCGUAAGGAGGACAUGAGGAUCACCCAUGUGUGUGGAAUUGGAGGACGAGAAGGCAGAGGAGUGGG [JR_SS2_Sub054] (Eterna round: R96, puzzle: Same State 2) | – | – | – | 40.5 | 35 | 38.4
GGUCGGUCCAAACAUGAGGAUCACCCAUGUCCGGAAACGGCAUAGGAUAUCUGUCCGAAAAGGUCAGAGAAGGGUGAACCGACC [Fiskers NG3ss - 71] (Eterna round: R96, puzzle: Same State NG 3) | – | – | – | 795 | 741 | 149
CAUCGUUUGAUAGGAUAUCGCUAUACAUGAGGAUCACCCAUGUUUACCACGCUGGUUUUUCAUACCGAGAAGGAUUCUGAUGAA [salish99_SSNG02_r04_011] (Eterna round: R96, puzzle: Same State NG 2) | – | – | – | 24.9 | 29.7 | 34.5
UUAACAUGAGGAUCACCCAUGUAUAGGGAGUUAGCAAUUGGACAGGAUAUUGAAGAUGUAGAUAGCAAGAAGGGUCGGUAGUCU [JR_SSNG3_Sub002] (Eterna round: R96, puzzle: Same State NG 3) | – | – | – | 36.8 | 32.9 | 46.7
UGACACACGGCAGGAUAUCGAUUGCAAAGCAAUCGAGAAGGGCCUCAUGUCGUGGAAACGUGACAUGAGGAUCACCCAUGUCGC [Omei SS(NG)1 Cv13] (Eterna round: R96, puzzle: Same State NG 1) | – | – | – | 53.1 | 11.6 | 24
UGUUGUAUUACAGGAUAUCUAGUAUUUUUACUUAGAGAAGGGUAUUCACAUGAGGAUCACCCAUGUAUAUACGAGGAAGUUGUG [JMF's solution 50] (Eterna round: R96, puzzle: Same State NG 1) | – | – | – | – | 22.9 | –
AUUAAUAAUCGAGGAUAUCACGUCGUUUAGACGUGAGAAGGCGAUCAUAACAUGAGGAUCACCCAUGUAUUACAUGAAGUUAAU [SSNG1/4-B3] (Eterna round: R96, puzzle: Same State NG 1) | – | – | – | 37.8 | 26.3 | 39.3
